Source: publication PMC8840930, “PSTPIP1-LYP phosphatase interaction: structural basis and implications for autoinflammatory disorders” (Cellular and Molecular Life Sciences: CMLS, 2022)
Several values for one entry are separate records, joined by “and”; a condition that tells them apart may be missing. Identical values can stand only once. Values belong to the binder of their own block, whether it stands above or below them. Ends that are not written are not given here.

B2: F-BAR domain of PSTPIP1 (residues 1-289), wild type (domain or fragment)
chain: not shown
notes: PSTPIP1, human, UniProt O43586, region 1-289 (F-BAR domain); modified pET15b with TEV site; homodimer in the crystals; also called wild type F-BAR; F-BAR of PSTPIP1; not shown: poly-His, N-terminal, cleaved
B3: fluorescein-LYP-CTH (peptide)
peptide: fluorescein-GFANRFSKPKGPRNPPPTWNI
notes: LYP (PTPN22), human, UniProt Q9Y2R2-1, region 787-807 (C-terminal homology segment, CTH); also called fluorescein-labeled LYP-CTH; synthetic peptide of the CTH of LYP (residues 787-807) labeled with fluorescein; source: synthetic peptide (custom synthesized, Thermo Scientific, Germany)

How the values were obtained:
[1] = target: T1, F-BAR domain of PSTPIP1 (residues 1-289), wild type (human, UniProt O43586 1-289); assay: ITC; unlabeled LYP-CTH peptide in the syringe, F-BAR of PSTPIP1 in the cell; 25 °C; 20 mM sodium phosphate (pH 7.5), 150 mM NaCl, 5% (v/v) DMSO; single set of identical sites model; three single experiments; conditions: both partners purified
T1 construct: His tag cleaved with TEV protease; forms the F-BAR dimer in the crystal; also called PSTPIP1 F-BAR (1-289); F-BAR of PSTPIP1; not shown: poly-His, N-terminal, cleaved

[2] = target: the molecule itself; assay: crystal structure; F-BAR domain of PSTPIP1 (1-289) alone, G258A and wild type; space group P212121, two molecules in the asymmetric unit
[3] = target: B3; assay: fluorescence polarisation; fluorescence anisotropy under saturation conditions; fluorescein-LYP-CTH at 1 µM titrated with the F-BAR of PSTPIP1; stoichiometry from the intersection of asymptotes; conditions: both partners purified
[4] = target: B2; assay: fluorescence polarisation; fluorescence anisotropy; fluorescein-LYP-CTH (2 nM) titrated with the F-BAR of PSTPIP1; 20 mM Tris/HCl pH 7.5, 150 mM NaCl, 0.1 mg/mL BSA; 25 °C; apparent kd, one-to-one binding model; conditions: both partners purified
[5] = target: T2, F-BAR domain of PSTPIP1 (residues 1-289), A230T (human, UniProt O43586 1-289, A230T); assay: as above; conditions: both partners purified
T2 construct: PSTPIP1, human, UniProt O43586, region 1-289 (F-BAR domain), patient mutation A230T; also called A230T mutant; not shown: poly-His, N-terminal, cleaved

[6] = target: B3; assay: as above; conditions: both partners purified
[7] = target: B2; assay: ITC; 25 °C; F-BAR of PSTPIP1 in the cell (26.2-30.6 µM), unlabeled LYP-CTH peptide in the syringe (146.8-155.2 µM); 20 mM sodium phosphate pH 7.5, 150 mM NaCl, 5% DMSO; single set of identical sites model; conditions: both partners purified

T2 sequence (O43586 1-289 A230T): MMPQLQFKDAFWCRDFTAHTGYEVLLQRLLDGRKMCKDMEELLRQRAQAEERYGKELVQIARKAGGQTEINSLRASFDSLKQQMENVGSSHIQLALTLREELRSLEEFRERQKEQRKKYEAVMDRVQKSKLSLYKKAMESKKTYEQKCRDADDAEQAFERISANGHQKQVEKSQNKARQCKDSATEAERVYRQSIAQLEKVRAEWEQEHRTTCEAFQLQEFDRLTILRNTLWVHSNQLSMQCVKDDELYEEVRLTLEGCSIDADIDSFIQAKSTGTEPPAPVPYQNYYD

Binder: B2
- binding result [2]: binds
- stoichiometry N [3]: 2 molecules of PSTPIP1 for each LYP-CTH

Binder: B3
- Kd [4]: ~20 nM
- Kd [5]: ~20 nM

B4: F-BAR domain of PSTPIP1 (residues 1-289), E250Q (domain or fragment)
chain: not shown
notes: PSTPIP1, human, UniProt O43586, region 1-289 (F-BAR domain), patient mutation E250Q; not shown: poly-His, N-terminal, cleaved
- fold lower binding affinity than the wild type F-BAR [6]: ~60 fold

B6: F-BAR domain of PSTPIP1 (residues 1-289), G258A (domain or fragment)
chain: not shown
notes: PSTPIP1, human, UniProt O43586, residues 1-289 (F-BAR domain), patient mutation G258A; homodimer in the crystal; also called G258A mutant; PSTPIP1-G258A; not shown: poly-His, N-terminal, cleaved
- stoichiometry N [2]: 2

More lines, now with the values ahead:

- Kd [1]: 263 nM and 229 nM and 267 nM
- stoichiometry N [1]: 0.5 and 0.49 and 0.46
B1: unlabeled peptide of the CTH of LYP (residues 787-807) (peptide)
peptide: GFANRFSKPKGPRNPPPTWNI
notes: lymphoid phosphatase LYP (PTPN22), human, C-terminal homology segment, region 787-807; also called LYP-CTH; source: synthetic peptide (Genosphere Biotechnologies)

- fold lower binding affinity than the wild type F-BAR [6]: ~60 fold
B5: F-BAR domain of PSTPIP1 (residues 1-289), W232A (domain or fragment)
chain: not shown
notes: PSTPIP1, human, UniProt O43586, region 1-289 (F-BAR domain), W232A; not shown: poly-His, N-terminal, cleaved

- Kd [7]: 253 nM
- stoichiometry N [7]: 0.48 molecules of LYP-CTH for each PSTPIP1
B7: LYP-CTH peptide, unlabeled (residues 787-807) (peptide)
peptide: GFANRFSKPKGPRNPPPTWNI
notes: LYP (PTPN22), human, UniProt Q9Y2R2-1, region 787-807 (C-terminal homology segment, CTH); also called unlabeled LYP-CTH; peptide of the CTH of LYP; source: synthetic peptide (custom synthesized, Genosphere Biotechnologies, France)
